Reference: US20100203083A1

Key:
[1] = target: purified αVβ3 integrin (CHEMICON) (UniProt P06756)
[2] = target: AAV-amyloid-453-587 (AAV-2; human) (UniProt P03135)

Substance: AAV2 RGD4C 453 A2 (from UniProt P03135 1-453; P03135 454-735) (other; other documents disagree on this pair)
- fold increase of binding activity against RGD4C 453 [1]: 50 fold

Substance: anti-β-amyloid mAb 6E10 (CHEMICON) (antibody)
- fold higher affinity against the I-587-insertion mutant (AAV-amyloid-587) [2]: > 2 fold
